We go through 1 molecule from article PMC8544208 (Antibodies, 2021).

This experiment deals with T1, C5b6 with bound C7 and C8, assembled on the SPR chip (human | , UniProt P01031 19-673; P01031 752-1676; P13671 22-934; P10643 23-843; P07357 31-584; …).
T1 construct: complement C5 beta chain, as part of C5b; complement C5 alpha' chain of C5b; complement component C6; complement component C7; complement component C8 alpha chain; complement component C8 beta chain; complement component C8 gamma chain; Formed by injecting C7 (4 nM) and then C8 (8 nM) over C5b6 captured on the anti-C5 tool antibody; source: assembled on the SPR chip from bought C5b6, C7 and C8 …
Kind of experiment: SPR; MAC assembly assay, Biacore 8K, HBS-EP+; anti-C5 antibody amine coupled to a CM5 chip, C5 or C5b6 captured at 4 nM; C7, C8 and C9 flowed over in succession at 4, 8 and 50 nM, also with single components left out. The following applies: both partners purified. (In SPR one partner is held on a chip, and binding of the other changes the refractive index at the surface.)

B1: Complement C9 (natural protein)
chain: not shown
notes: complement component C9; Unlabelled C9 as used in SPR; source: bought: Complement Technology (Comptech)
With B1, the binding result is on record as “binds”.
